Test results: patent US20090291083A1, “BARB4 TARGET, ANTIBODY DESIGNATED BARB4, BARB4 RELATED ANTIBODIES, AND METHODS OF MAKING AND USING SAME” (PATRYS LIMITED, priority 2008, published 2009)

Legend:
TAF 15 = assay: Immunoprecipitation of cell extracts with BARB4 and Western blotting; type: binding, human; details: MKN cell extracts
Method: To further validate BARB4 target protein TAF 15, BARB4 and a commercial TAF 15 antibody (anti-human TAFII p68, Santa Cruz Biotechnology, sc-81121) were analyzed for binding to BxPC-3, HEK 293, A549 and HeLa cell lines. In brief, cells were trypsinized with cell dissociation solution (Sigma C5789), resuspended in complete medium (RPMI 1640, PAA, E15-039, 10% Fetal bovine serum, PAA, A15-151 and 1% Glutamine, PAA, M11-004) and set on 2×10^5/ml. After 30 minutes on ice, cells were dispersed at 1 ml per FACS-tube and washed once with ice-cold PBS by centrifugation with 500 g and 4° C. Staining was done with BARB4 (100 ug/ml) or the commercial TAF 15 (25 μg/ml) IgG antibodies, control IgGs (IgG lambda, or mouse IgG), or without antibody in 200 μl PBS. Cells were incubated with 25 μg/ml antibody in 100 μl for 30 minutes on ice, then washed with ice cold PBS and secondary antibody (anti mouse IgG-FITC, dianova 115-095-008) was applied at a dilution of 1:50 in 200 μl per tube. After another 30 minutes of incubation in the dark, cells were washed twice with PBS and analyzed by FACS. […] BARB4 target protein TAF 15 validation was then analyzed by immunoprecipitation of MKNcell extracts with BARB4 and subsequent Western blotting with either BARB4 or anti-TAF 15 antibodies (Biomol, A300-308A; or Aviva, ARP30111_T100). […]

[1] = system: human pancreas carcinoma cells (BXPC-3); assay: Glycosidase assay on cytospins, immunohistochemical staining; type: binding; details: BXPC-3 cytospins, biotinylated BARB4 100 μg/ml
Method: To determine whether O- or N-linked sugar residues are potentially involved in BARB4 binding to tumor cells, cytospin preparations of BXPC-3 cancer cells were incubated with N- or O-glycosidase. In brief, 4×10^5 human pancreas carcinoma cells (BXPC-3) were resuspended in 1 ml Dulbecco's phosphate buffered saline pH 7.2 (Sigma, Taufkirchen, Germany) and incubated with 10 U/ml N-glycosidase or 40 mU/ml O-glycosidase (both Roche Applied Science, Mannheim, Germany) for 2 hours at 37° C. Untreated cells in Dulbecco's phosphate buffered saline served as control. Cytospins were prepared and immunohistochemical staining with biotinylated BARB4 antibody (100 μg/ml) was performed.
After treatment of the cells, binding of BARB4 was evaluated by immunohistochemical staining (FIG. 5). […] BARB4 could therefore bind to an eptiope that includes or consists of a carbohydrate moiety that is removed or modified by O-glycosidase treatment.

B1: BARB4: human IgG antibody produced by hybridoma DSMZ Deposit No. DSM ACC2876; heavy chain SEQ ID NOs:1, 3, 5, 7, light chain SEQ ID NO:9 (antibody, V domains shown)
VH: QVQLVESGGGVVQPGRSLRLSCAASGFRFTTHGMHWVRQAPGKGLEWVAVISYNGRNKYYADYVNGRFTISRDDSRDTVFLQMNSLRPEDTAMYYCAKVRGDGYGDYGYFDYWGHGTLVSVSS
VL: QSALTQPRSVSGSPGQSVTISCTGTYNYVSWYQQHPGKAPKLMIFDVSRRSSGVPDRFSGSKSGNTASLTISGLQAEDEADYYCCSYGGTYLYVFGTGTTVTVLGQ
detection of TAF15 in the immunoprecipitate by Western staining with BARB4 antibody (TAF 15; FIG. 9B, assay conditions may not be optimized): did not appear to detect TAF15
immunoprecipitation of TAF 15, Western staining with anti-TAF 15 antibodies (TAF 15; FIGS. 9A and 9C): able to immunoprecipiate TAF 15
surface binding on cells treated with N-glycosidase ([1]; 10 U/ml N-glycosidase 2 hours 37° C.): clear reduction of surface binding
binding on cells treated with O-glycosidase ([1]; 40 mU/ml O-glycosidase 2 hours 37° C.): no effect
